Results on three molecules are retold here after PMC3096012.

Holding throughout (experiment): SEC
In general terms: SEC sorts molecules by how far they enter the pores of the column.

The target of assay [1] is GltPh-A V355C-S279C, unlabeled (Pyrococcus Horikoshi), O59010.
Assay [2] addresses GltPh-A V355C-P129C, unlabeled (Pyrococcus Horikoshi), O59010.
The target in assay [3] is GltPh-A A353C-L130C, unlabeled (Pyrococcus Horikoshi), O59010.

B1: GltPh-A V355C-S279C, unlabeled, O59010 1-425 (natural protein)
chain: MGLYRKYIEYPVLQKILIGLILGAIVGLILGHYGYAHAVHTYVKPFGDLFVRLLKMLVMPIVFASLVVGAASISPARLGRVGVKIVVYYLLTSAFAVTLGIIMARLFNPGAGIHLAVGGQQFQPHQAPPLVHILLDIVPTNPFGALANGQVLPTIFFAIILGIAITYLMNSENEKVRKSAETLLDAINGLAEAMYKIVNGVMQYAPIGVFALIAYVMAEQGVHVVGELAKVTAAVYVGLTLQILLVYFVLLKIYGIDPISFIKHAKDAMLTAFVTRSSCGTLPVTMRVAKEMGISEGIYSFTLPLGATINMDGTALYQGVATFFIANALGSHLTVGQQLTIVLTAVLASIGTAGCPGAGAIMLAMVLHSVGLPLTDPNVAAAYAMILGIDAILDMGRTMVNVTGDLTGTAIVAKTEGTLVPR
modifications: not checked
Take B1: in assay [1], the stoichiometry N (usually a count of units in the complex or per binding partner) turned out to be 3.

B2: GltPh-A V355C-P129C, unlabeled, O59010 1-425 (natural protein)
chain: MGLYRKYIEYPVLQKILIGLILGAIVGLILGHYGYAHAVHTYVKPFGDLFVRLLKMLVMPIVFASLVVGAASISPARLGRVGVKIVVYYLLTSAFAVTLGIIMARLFNPGAGIHLAVGGQQFQPHQAPCLVHILLDIVPTNPFGALANGQVLPTIFFAIILGIAITYLMNSENEKVRKSAETLLDAINGLAEAMYKIVNGVMQYAPIGVFALIAYVMAEQGVHVVGELAKVTAAVYVGLTLQILLVYFVLLKIYGIDPISFIKHAKDAMLTAFVTRSSSGTLPVTMRVAKEMGISEGIYSFTLPLGATINMDGTALYQGVATFFIANALGSHLTVGQQLTIVLTAVLASIGTAGCPGAGAIMLAMVLHSVGLPLTDPNVAAAYAMILGIDAILDMGRTMVNVTGDLTGTAIVAKTEGTLVPR
modifications: not checked
In turn, B2 showed a stoichiometry N in assay [2] of 3.

B3: GltPh-A A353C-L130C, unlabeled, O59010 1-425 (natural protein)
chain: MGLYRKYIEYPVLQKILIGLILGAIVGLILGHYGYAHAVHTYVKPFGDLFVRLLKMLVMPIVFASLVVGAASISPARLGRVGVKIVVYYLLTSAFAVTLGIIMARLFNPGAGIHLAVGGQQFQPHQAPPCVHILLDIVPTNPFGALANGQVLPTIFFAIILGIAITYLMNSENEKVRKSAETLLDAINGLAEAMYKIVNGVMQYAPIGVFALIAYVMAEQGVHVVGELAKVTAAVYVGLTLQILLVYFVLLKIYGIDPISFIKHAKDAMLTAFVTRSSSGTLPVTMRVAKEMGISEGIYSFTLPLGATINMDGTALYQGVATFFIANALGSHLTVGQQLTIVLTAVLASIGTCGVPGAGAIMLAMVLHSVGLPLTDPNVAAAYAMILGIDAILDMGRTMVNVTGDLTGTAIVAKTEGTLVPR
modifications: not checked
As for B3, in assay [3], the stoichiometry N stood at 3.
